{
  "source": "patent US20210063414A1",
  "about": "“METHODS FOR PREVENTING AND/OR TREATING BONE LOSS CONDITIONS BY MODULATING IRISIN” (Dana-Farber Cancer Institute, Inc., priority 2018, published 2021)",
  "molecules": {"B1": {"name": "irisin: secreted cleaved form of FNDC5; recombinant human/mouse irisin with C-terminal his tag produced in HEK293 cells (protein)", "chain": "DSPSAPVNVTVRHLKANSAVVSWDVLEDEVVIGFAISQQKKDVRMLRFIQEVNTTTRSCALWDLEEDTEYIVHVQAISIQGQSPASEPVLFKTPREAEKMASKNKDEVTMKE", "modifications": "left off: small tags and cut ends", "notes": "secreted cleaved form of FNDC5; recombinant human/mouse irisin with C-terminal his tag produced in HEK293 cells"}},
  "molecular_target": "T1, integrin αV/β3 (Homo sapiens, UniProt P05106+P06756)",
  "T1 construct": "expressed in transfected cells; host or cells: HEK293T",
  "T1 sequence (P06756 31-889 limits assumed)": "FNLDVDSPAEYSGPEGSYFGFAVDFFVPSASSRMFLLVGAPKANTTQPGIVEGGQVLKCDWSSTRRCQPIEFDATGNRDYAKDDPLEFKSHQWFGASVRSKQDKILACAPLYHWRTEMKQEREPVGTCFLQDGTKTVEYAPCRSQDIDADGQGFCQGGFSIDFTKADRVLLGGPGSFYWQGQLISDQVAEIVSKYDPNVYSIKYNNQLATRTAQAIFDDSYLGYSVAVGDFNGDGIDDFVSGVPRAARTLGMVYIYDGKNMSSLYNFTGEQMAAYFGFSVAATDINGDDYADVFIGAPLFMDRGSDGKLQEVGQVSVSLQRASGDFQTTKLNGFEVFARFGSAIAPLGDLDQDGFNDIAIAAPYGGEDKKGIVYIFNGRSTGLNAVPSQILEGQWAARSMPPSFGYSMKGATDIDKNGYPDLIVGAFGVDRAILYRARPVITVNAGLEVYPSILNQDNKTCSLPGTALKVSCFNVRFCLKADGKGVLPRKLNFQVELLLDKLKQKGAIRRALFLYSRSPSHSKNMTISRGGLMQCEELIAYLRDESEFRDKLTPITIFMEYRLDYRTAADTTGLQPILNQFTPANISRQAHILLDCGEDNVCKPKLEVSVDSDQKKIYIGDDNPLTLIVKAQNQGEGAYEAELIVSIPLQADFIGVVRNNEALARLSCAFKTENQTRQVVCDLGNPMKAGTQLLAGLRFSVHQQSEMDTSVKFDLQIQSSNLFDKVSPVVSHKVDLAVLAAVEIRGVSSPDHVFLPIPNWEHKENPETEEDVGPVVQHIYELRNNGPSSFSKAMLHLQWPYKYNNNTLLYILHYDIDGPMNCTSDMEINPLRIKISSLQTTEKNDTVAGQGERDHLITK",
  "T1 sequence (P06756 891-1048 partner limits assumed)": "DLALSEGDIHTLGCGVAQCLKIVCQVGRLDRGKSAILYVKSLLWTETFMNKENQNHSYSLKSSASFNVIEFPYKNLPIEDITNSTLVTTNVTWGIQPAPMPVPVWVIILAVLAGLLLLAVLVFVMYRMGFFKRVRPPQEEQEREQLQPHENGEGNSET",
  "T1 sequence (P05106 27-788)": "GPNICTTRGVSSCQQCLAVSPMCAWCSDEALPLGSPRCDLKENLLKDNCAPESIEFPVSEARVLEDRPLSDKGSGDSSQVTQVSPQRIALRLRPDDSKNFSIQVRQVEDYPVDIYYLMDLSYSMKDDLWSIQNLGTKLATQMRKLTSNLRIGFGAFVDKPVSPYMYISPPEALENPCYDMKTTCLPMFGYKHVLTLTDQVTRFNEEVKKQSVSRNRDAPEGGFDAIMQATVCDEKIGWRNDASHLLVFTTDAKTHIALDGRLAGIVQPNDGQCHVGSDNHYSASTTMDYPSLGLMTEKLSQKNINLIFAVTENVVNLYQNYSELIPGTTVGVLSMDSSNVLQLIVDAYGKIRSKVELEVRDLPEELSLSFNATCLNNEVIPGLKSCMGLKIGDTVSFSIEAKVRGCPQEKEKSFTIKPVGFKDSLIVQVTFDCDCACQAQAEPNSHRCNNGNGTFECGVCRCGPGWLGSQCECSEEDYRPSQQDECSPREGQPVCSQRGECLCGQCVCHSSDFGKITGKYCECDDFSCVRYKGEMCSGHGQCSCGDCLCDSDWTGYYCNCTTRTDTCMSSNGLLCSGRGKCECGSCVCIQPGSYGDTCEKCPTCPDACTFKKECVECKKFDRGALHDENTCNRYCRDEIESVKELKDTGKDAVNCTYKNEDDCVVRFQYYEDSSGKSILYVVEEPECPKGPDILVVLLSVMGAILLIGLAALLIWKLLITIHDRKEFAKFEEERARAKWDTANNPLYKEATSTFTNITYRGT",
  "assay": "FAK phosphorylation in HEK293T cells with forced expression of integrin αV/β3",
  "assay_type": "cell-based",
  "conditions": "HEK293T, forced expression of integrin αV/β3, irisin 5 minutes",
  "protocol": "100 nM irisin was incubated with 5 nM indicated his-tag integrins followed by immunoprecipitation using Ni-NTA agaroses. Precipitated integrins and co-precipitated irisin were analyzed by immunoblot analysis. […] HEK293T cells were seeded and incubated until 50% cell density. The cells were transfected with 0.1 μg plasmids of indicated integrins. After 48 hours, the cells were incubated with Freestyle293 medium for 3 hours and were treated with indicated concentration of irisin for 5 minutes. Cells were lysed to detect the indicated protein level using immunoblot analysis. […] MLO-Y4 cells were treated as described in FIG. 2D with addition of pretreatment of indicated antagonistic antibodies for 10 minutes. Cells were lysed to detect the indicated protein level using immunoblot analysis. […] Sclerostin mRNA level was analyzed by qRT-PCR. […]\n100 nM irisin was incubated with 5 nM indicated his-tag integrins followed by immunoprecipitation using Ni-NTA agaroses. Precipitated integrins and co-precipitated irisin were analyzed by immunoblot analysis. […] Cells were treated and analyzed as FIG. 14B except using plasmids encoding integrin α5/β1 or integrin α11/β1 (FIG. 15C) integrin αV/β1(FIG. 15D). […]\nCells were harvested in RIPA buffer containing protease-inhibitor cocktail and phosphataseinhibitor cocktail. […] Protein levels were analyzed via western blot using indicated antibody. […]",
  "data": [
    {"molecule": "B1", "values": [
      {"measurement": "phosphorylation of FAK upon irisin treatment", "result": "not"}
    ]}
  ]
}
